Test results published in US20210388068A1.

Legend:
[1] = target: MBP-CfaE-N Arg67Ala mutant (enterotoxigenic Escherichia coli (ETEC)) (UniProt P25734); test: ELISA on plate-bound MBP-CfaE-N Arg67Ala mutant, OD405
[2] = target: MBP-CfaE-N Asn127Ala mutant (enterotoxigenic Escherichia coli (ETEC)) (UniProt P25734); test: ELISA on plate-bound MBP-CfaE-N Asn127Ala mutant, OD405
[3] = target: MBP-CfaE-N Thr91Ala mutant (enterotoxigenic Escherichia coli (ETEC)) (UniProt P25734); test: ELISA on plate-bound MBP-CfaE-N Thr91Ala mutant, OD405
[4] = target: MBP-CfaE-N Arg145Ala mutant (enterotoxigenic Escherichia coli (ETEC)) (UniProt P25734); test: ELISA on plate-bound MBP-CfaE-N Arg145Ala mutant, OD405

Binder | EC50 (read off the curve) [1] [µg/mL] | EC50 (read off the curve) [2] [µg/mL] | EC50 (read off the curve) [3] [µg/mL] | EC50 (read off the curve) [4] [µg/mL]
anti-CfaE HuMab 68-90 (antibody, human IgG1, V domains shown) VH: QVQLQQWGAGLLKPSETLSLTCAVYGGSFSAYYWSWIRQPPGKGLEWIGEINHSGNTNYNPSLESRVTISVDTSKNQVSLKQSSVTAADTAVYYCARNWGPNAFDIWGRGTMVTVSS VL: DIQMTQSPSSVSASVGDRVTITCRASQDITSWLVWYQHKPGKAPKLLIYAASSLQSGVPSRFSGSGSGTDFTLTISSLQPEDFATYYCQQANIFPYTFGQGTKLEIK | 0.04 | 0.01 | 0.02 | 0.03
anti-CfaE HuMab 68-61 (antibody, human IgG1, V domains shown) VH: QVQLVQSGAEVKNPGSSVRVSCEASGGTFSSFAISWVRQAPGQGLEWMGRIIPILDIVKYAQRFQGRVTISADKSTSTAYMELSSLRSEGTAVYYCARDDIAGSDFDIWGQGTMVTVSS VL: DIQMTQSPSSLSASVGDRVTITCRASQGISSWLAWYQQKPEKAPKSLIYAASSLQSGVPSRFSGSGSGTDFTLTISSLQPEDFATYYCQQYTSYPYTFGQGTKLEIK | 0.04 | – | – | 0.03
anti-CfaE HuMab 68-48 (antibody, human IgG1, V domains shown) VH: QVQLQQWGAGLLKPSETLSLTCAVYGGSFSGYSWSWIRQSPGKGLEWIGEIYHSGSTNYNPSLKSRVTISGDTSKNQFSLKLSSVTAADTAVYYCARENLQGYYYYGMDVWGQGTTVTVSS VL: AIQLTQSPSSLSASVGDRVTITCRASQGISSSLAWYQQKPGKAPKLLIYDASSLESGVPSRFSGSGSGTDFTLTISSLQPEDFATYYCQQFNSYPRTFGQGTKVEIK | 0.04 | – | – | 0.03
